Where no end group is shown, it is not given here. Me3 = trimethyl-lysine; Me2 = dimethyl-lysine

In this experiment the target is T1, PHD domain of human MLL5 (Ser109-Asp188) (human, UniProt Q8IZD2 109-188, 15N-labelled in the NMR titration).
T1 construct: Mixed Lineage Leukemia 5 (MLL5), human, PHD finger, residues 109-188, 80 residues; Cloned into the vector pET28a-MHL (GenBank EF456735 is the vector's id); The tag is detected with anti-His in the peptide array; also called MLL5PHD; MLL5 PHD finger; source: E. coli BL21 (DE3) Codon plus RIL, purified (Ni column, Superdex200, Source 30Q; for NMR 13C/15N-labelled from minimal media, Ni-NTA)
T1 sequence (looked up): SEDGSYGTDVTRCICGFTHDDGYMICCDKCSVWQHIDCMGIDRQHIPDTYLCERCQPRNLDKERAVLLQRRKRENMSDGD
Kind of experiment: fluorescence polarisation; 40 nM fluorescein-labelled peptide, MLL5PHD titrated (low to high micromolar); 20 mM Tris-HCl pH 7.5, 50 mM NaCl, 0.01% Triton X-100; 384-well plates. The note with it: both partners purified.

B1: H3K4me2 peptide labelled with fluorescein (peptide)
chain: ARTK(Me2)QTARKSTGGKA
modifications: not fully specified (N-terminus); also: fluorescein label, C- or N-terminal (sources disagree)
Regarding B1, the Kd is around 16 µM.

B2: H3K4me3 peptide labelled with fluorescein (peptide)
chain: ARTK(Me3)QTARKSTGGKA
modifications: not fully specified (N-terminus); also: fluorescein label, C- or N-terminal (sources disagree)
For B2, the Kd is around 16 µM.

Broadly, the Kd is a measure of binding affinity in units of concentration. High values mean a looser complex, low ones a tighter complex.

These data come from paper PMC3793974, “Solution NMR Structure and Histone Binding of the PHD Domain of Human MLL5” (PLoS ONE, 2013).
